Experimental data as given in the supplement of paper PMC12042874.
± gives the uncertainty stated by the source.

Test: amyloid nucleation score (Sup35N fusion, yeast selection) (log enrichment); library NNK3; higher = more nucleation; inactive = no reads after selection
Procedure, shortened: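 Yeast lacking psi expressed peptides of 20 random codons fused to Sup35N, received 100 μM copper sulfate for 24 hours, and were then grown for 7 days at 30°C on medium lacking adenine and uracil. Illumina sequencing of input and output plasmid inserts provided the reads. Nucleation scores are DiMSum log enrichments of output over input, centred on the mode of non-aggregating sequences. Any sequence with under 100 input reads was excluded.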
For IKSKNAVCCHFATTMQDSLT, the amyloid nucleation score was “inactive”. For AYRLTLCLPSWVWL, the amyloid nucleation score was “inactive”. With FRCFYGTRSWRKECGESAFL the amyloid nucleation score was “inactive”. In the case of THGIMLGFEECLGVYTFMCG, the amyloid nucleation score is reported as “inactive”. With SLGYGDI the amyloid nucleation score was “inactive”. In the case of VLTVYDCGLEQPW, the amyloid nucleation score is reported as “inactive”. For EYYDI, the amyloid nucleation score was “inactive”. In the case of TWLIY, the amyloid nucleation score is reported as “inactive”. With CLSLKNERHQVFMSRIGNRA the amyloid nucleation score was “inactive”. In the case of NMIAVYLVLPRDSLGMIFTF, the amyloid nucleation score is reported as “inactive”. In the case of TFLRQGMNSDISYLVRFGGN, the amyloid nucleation score is reported as -0.057 ± 0.47. In the case of LLCMTPNIVNSRLMTYYPCH, the amyloid nucleation score is reported as “inactive”. QTVKHIKICGVCWVSMLMF showed an amyloid nucleation score of 2.07 ± 0.086. For VHTCGRKVWFEA, the amyloid nucleation score was “inactive”. For TTRYHF, the amyloid nucleation score was “inactive”. For DREST, the amyloid nucleation score was “inactive”. In the case of DVNFWSLYKFCTRVDFGLSY, the amyloid nucleation score is reported as “inactive”. Substance KCGIQLICMWFS has an amyloid nucleation score of 1.47 ± 0.14. With LSCNDYNDG the amyloid nucleation score was “inactive”. For LWGKNWIDVAECIVCLPQAS, the amyloid nucleation score was “inactive”. In the case of LWLFIAY, the amyloid nucleation score is reported as “inactive”. In the case of SVERCVIRFCYLQGLYMAAF, the amyloid nucleation score is reported as “inactive”. In the case of VPNEVFISYLV, the amyloid nucleation score is reported as “inactive”. With QFYGLHMAFGKQVNALYTGH the amyloid nucleation score was “inactive”. Work on FMYSGAVSDVRLNSSGDSLG yielded an amyloid nucleation score of -0.516 ± 0.96. For NCDIPFFTRSEIVFLFVDFI, the amyloid nucleation score was “inactive”. For MVCLDWVPSNVMTLGS, the amyloid nucleation score was “inactive”. For TYSSGFAPGWN, the amyloid nucleation score was “inactive”. For EDGCRNVRLFTMVRSLMYK, the amyloid nucleation score was “inactive”. In the case of EHNYVSTIGYSCRFEPGTRR, the amyloid nucleation score is reported as “inactive”. With MSFMTDLNPTFLFMLIG the amyloid nucleation score was “inactive”. With SFPFDLFGNIVW the amyloid nucleation score was “inactive”. WWFLGGRSRGDRGILMVDVA gave an amyloid nucleation score of 0.214 ± 0.53. With TAVVKW the amyloid nucleation score was “inactive”. With DVCRTQSFGVAKTVIFCFLF the amyloid nucleation score was “inactive”. For VLRGHSMHRSMGLWLA, the amyloid nucleation score was “inactive”. For RHWDVLK, the amyloid nucleation score was “inactive”. For RDVFINPTTGQALNVWACCR, the amyloid nucleation score was “inactive”. For LHHSVG, the amyloid nucleation score was “inactive”. With CAYPVKKCMPYQYMKKFVLV the amyloid nucleation score was “inactive”. In the case of KREPKS, the amyloid nucleation score is reported as “inactive”. For WIFENMSYIRKICQWCKSYV, the amyloid nucleation score was “inactive”. With PWMHLYRHAMFISAHLRYSC the amyloid nucleation score was “inactive”. For VECCNGLCDDVLGAVGNLGL, the amyloid nucleation score was “inactive”. For IGEMNTPMPAMKFVMRWLDH, the amyloid nucleation score was 0.845 ± 0.13. With ARSARGLGQRYLLYMYCLWL the amyloid nucleation score was “inactive”. In the case of RPYSNQGGTLITSAVLGLTK, the amyloid nucleation score is reported as “inactive”. For LNFAHAKMFSFITMVVY, the amyloid nucleation score was “inactive”. With WKGWSFNLLLRGILQAIIAS the amyloid nucleation score was “inactive”. In the case of WDPECSTDVISEGRGRYTEW, the amyloid nucleation score is reported as “inactive”. In the case of NSGNSIAVAAALDKDTLQAG, the amyloid nucleation score is reported as “inactive”. For LRGTMGEV, the amyloid nucleation score was “inactive”. RIFWHQCGYGSIRLWGQLDR showed an amyloid nucleation score of -0.531 ± 0.83. In the case of TICYGD, the amyloid nucleation score is reported as “inactive”. In the case of SRAMVKVRSNFRQRK, the amyloid nucleation score is reported as “inactive”. For KNQYSNSRLWYGALECHAPG, the amyloid nucleation score was “inactive”. QYVYLCRYLNMRPACYDMVV showed an amyloid nucleation score of -0.329 ± 0.8. With WTWGKAYDAMFLIVTFFCIF the amyloid nucleation score was “inactive”. In the case of WVWIVSMVRRGSEAFEALEM, the amyloid nucleation score is reported as “inactive”. With MCYVVNAHGVASQ the amyloid nucleation score was “inactive”. With DVMSILLTNVMLSKSALELS the amyloid nucleation score was “inactive”. In the case of FERSMHFENRDSDPCYIVRF, the amyloid nucleation score is reported as “inactive”. In the case of YSTVYIGSQVRVDDTLSMSA, the amyloid nucleation score is reported as “inactive”. Work on CGCCHVVVNSWW yielded an amyloid nucleation score of 2.65 ± 0.062. SMINKRR gave an amyloid nucleation score of 1.16 ± 0.15. With RLCHRWFLDRLTICY the amyloid nucleation score was “inactive”. With CQWANY the amyloid nucleation score was -0.508 ± 1. Work on GNLDTS yielded an amyloid nucleation score of -0.668 ± 1. MVGFLDTFSRIAVRCSIDRW gave an amyloid nucleation score of -0.344 ± 1. With FGEYKMISVEYLVLEIVRYM the amyloid nucleation score was “inactive”. With FYRAYSDYFWKTMFSYLGTS the amyloid nucleation score was -0.619 ± 0.93. For CYLCVAAGWSMATPLRGGLA, the amyloid nucleation score was “inactive”. In the case of ITFVYSS, the amyloid nucleation score is reported as “inactive”. In the case of ISCTIVLRIVNYNAILVHTY, the amyloid nucleation score is reported as “inactive”. With ACNDVIHVASSRDLMGAHPR the amyloid nucleation score was -0.396 ± 0.87. With PGFINFRGVTGKSLTYSILI the amyloid nucleation score was “inactive”. For ACTCDRAGDRLVVWLLDGYL, the amyloid nucleation score was “inactive”. With GRYCWCSLLAKYEMSLPRAR the amyloid nucleation score was -0.405 ± 0.8. In the case of LQISSMIFELYIFDLMMVM, the amyloid nucleation score is reported as “inactive”. With YYVLPASG the amyloid nucleation score was “inactive”. In the case of ILRSLVSLWYGCDCW, the amyloid nucleation score is reported as 0.661 ± 0.16. TFRLAEQQSEFSDLK gave an amyloid nucleation score of -0.335 ± 0.71. For NNYSPLFRTTAGYSSHFTRQ, the amyloid nucleation score was “inactive”. SMIYRLRSWVQYCDSQC gave an amyloid nucleation score of 0.344 ± 0.21. In the case of GSVGILHFGKYHSIVYSACN, the amyloid nucleation score is reported as “inactive”. For SVDDFR, the amyloid nucleation score was “inactive”. In the case of HGPRLLTSKVRFWRKTLRST, the amyloid nucleation score is reported as “inactive”. WKRNI gave an amyloid nucleation score of 0.172 ± 0.71. With VNFACSIGGRGLFGFGIKVS the amyloid nucleation score was “inactive”. With NTHKQWVRTLRWVLVSYNCC the amyloid nucleation score was “inactive”. For HLCWNRQGNDRRELKSRWRK, the amyloid nucleation score was “inactive”. With PLSSSLGWVCL the amyloid nucleation score was “inactive”. With TKWRLTP the amyloid nucleation score was “inactive”. In the case of YVGYIDRWSSCYKVFWV, the amyloid nucleation score is reported as “inactive”. For LTSMI, the amyloid nucleation score was “inactive”. In the case of VLYSCERKELVIGMKVLVWE, the amyloid nucleation score is reported as “inactive”. With QLHRENEVVRYVF the amyloid nucleation score was “inactive”. For CVVNGDLVASLKSLFLGWCL, the amyloid nucleation score was “inactive”. With NLRWSLIFMFGDCWGACGCG the amyloid nucleation score was 0.476 ± 0.23. For LFVLIDYNRYP, the amyloid nucleation score was “inactive”. In the case of YRNSICHNREKAWHGSNKNR, the amyloid nucleation score is reported as “inactive”. For RLTARLINGMDY, the amyloid nucleation score was 1.27 ± 0.1. In the case of WAYLWLSKNSYGR, the amyloid nucleation score is reported as “inactive”. In the case of CALSHYGKFDYYPSFVSFKQ, the amyloid nucleation score is reported as “inactive”. For EFGFVNGNRAGWGYFQRRAL, the amyloid nucleation score was -0.55 ± 2.4. For TSQQHPASVSKGYMLRDG, the amyloid nucleation score was “inactive”. With RYKEFVGNSIRIPDTCLSCC the amyloid nucleation score was “inactive”. In the case of ISSRSGHVVMSFVCATLRNL, the amyloid nucleation score is reported as “inactive”. For LYTNLTTVDLHCVKNA, the amyloid nucleation score was “inactive”. With DSICYHAFYMEEGGS the amyloid nucleation score was “inactive”. With YFRYRSDVIAYISVIIGNLV the amyloid nucleation score was “inactive”. With EASLSGGYTEYVGDFMRLVT the amyloid nucleation score was “inactive”. In the case of SFFVT, the amyloid nucleation score is reported as “inactive”. In the case of HYKKYITPVQRVGCADPSHC, the amyloid nucleation score is reported as “inactive”. For FHPFMCSYGSGWDGRLVHCG, the amyloid nucleation score was “inactive”. For NYDERCV, the amyloid nucleation score was -0.363 ± 0.98. With FLSYTPRATGYHFFRLSIFC the amyloid nucleation score was “inactive”. With NISMVTSEDYMRDLLIFSTG the amyloid nucleation score was “inactive”. In the case of LKIRKFLTFKFSSALIIVVC, the amyloid nucleation score is reported as “inactive”. In the case of GSLFVI, the amyloid nucleation score is reported as “inactive”. For FSLRLPYFA, the amyloid nucleation score was “inactive”. In the case of MLARHCQQGGRDHPWLGSVL, the amyloid nucleation score is reported as “inactive”. In the case of SAIFDGEQERSRDMLL, the amyloid nucleation score is reported as “inactive”. In the case of IYWLSDN, the amyloid nucleation score is reported as “inactive”. In the case of HHLSSDVSVLAFCNLPESNR, the amyloid nucleation score is reported as 1.21 ± 0.17. Work on ILASKALQQLLQGLTLV yielded an amyloid nucleation score of -0.375 ± 0.98. For TLGRNCLVQRSCMGRSSECD, the amyloid nucleation score was “inactive”. IGIIFSKVWSPPDDMHT showed an amyloid nucleation score of 1.28 ± 0.095. For NARGVKSDEILN, the amyloid nucleation score was “inactive”. In the case of LVSLWLDRD, the amyloid nucleation score is reported as “inactive”. In the case of TWVVLG, the amyloid nucleation score is reported as “inactive”. For PWRLIAALACVYTWPLGLRG, the amyloid nucleation score was “inactive”. With NFRLYLLNCN the amyloid nucleation score was “inactive”. For CRVSGMDICLWSMMCDSVGS, the amyloid nucleation score was “inactive”. For LFCAV, the amyloid nucleation score was “inactive”. With QSTGCLYSYLLANVGKSSGK the amyloid nucleation score was “inactive”. With VEFTN the amyloid nucleation score was “inactive”. For YVVELLVDSGYVPLCTTGQG, the amyloid nucleation score was “inactive”. With SVYQDCTGGNIPQFGSLAD the amyloid nucleation score was “inactive”. With WAEFLCLSSSFFLDM the amyloid nucleation score was “inactive”. RVRVYYGQDWYYKMLLARTI gave an amyloid nucleation score of -0.379 ± 0.84. YVTLYLDTGSCYLSLGCGAG showed an amyloid nucleation score of 0.758 ± 0.22. In the case of ARHVENSAKGFVGYLRRMHV, the amyloid nucleation score is reported as “inactive”. For DMCEGYVNYCRMHRAMRHDD, the amyloid nucleation score was “inactive”. With FNGMACVFRISFVALRLQGG the amyloid nucleation score was -0.892 ± 1.7. Substance YVFLRVEILEKLQQV has an amyloid nucleation score of -0.522 ± 0.84. In the case of IALTTRVN, the amyloid nucleation score is reported as “inactive”. With GSGCVIYIL the amyloid nucleation score was “inactive”. Substance VMVFN has an amyloid nucleation score of 0.635 ± 0.36. GFESPRGFSSVFSIVYGFWA gave an amyloid nucleation score of 0.855 ± 0.2. With VWVLHRRRSKYMQVTVWLDL the amyloid nucleation score was “inactive”. With LPGNVFDVPLFNLDVYWVTR the amyloid nucleation score was “inactive”. In the case of RKIHLLGHWLFRSMYRRRFW, the amyloid nucleation score is reported as “inactive”. With IPGAVISEYYKSYRSSTIPP the amyloid nucleation score was “inactive”. Substance GCFIGDVRMSMSCSKFLCIE has an amyloid nucleation score of 0.381 ± 0.15. For PVVTVHAWHRFNMHL, the amyloid nucleation score was “inactive”. With FFARDVRSN the amyloid nucleation score was “inactive”. With SFLYYRFVLVGIFLRVAGRF the amyloid nucleation score was “inactive”. With FLRSSVCA the amyloid nucleation score was “inactive”. RNSMGVILKVCLGRN gave an amyloid nucleation score of 1.66 ± 0.091. GSPVRWRGPGFTSPRLTRA gave an amyloid nucleation score of 0.766 ± 0.26. With MLNSLFAMNTILKW the amyloid nucleation score was 0.876 ± 0.083.
